Laboratory results taken from patent publication US20140301946A1 (Novartis, published 2014).

Assays:
Human FGFR4 ECD [1] = biological target: T1, Human FGFR4 ECD (human, UniProt P22455 22-369); test: SPR (Biacore), antibody captured, FGFR ECD as analyte
T1 construct: whole entry is the construct; also called FGFR4 D1-D3 construct
Description: The immobilization level and analyte interactions were measured by response unit (RU).
Subsequently, 0.078-100 nM of FGFR receptors, diluted in a 2-fold series, were injected at a flow rate of 80 μl/min for 7 min over both reference and test flow cells. Dissociation of the binding was followed for 10 min using HBS-EP⁺ supplemented with 0.5 mg/ml of BSA and 10 μg/ml heparin as running buffer. After each injection cycle, the chip surface was regenerated with 10 mM glycine, pH 2.0 at 60 μl/min for 70 s.

Human FGFR4 ECD [2] = biological target: T1, Human FGFR4 ECD; test: SPR (Biacore), assay conditions similar to those for 12425
FGFR2 D2-D3 Construct = biological target: T2, FGFR2 D2-D3 Construct (Human); test: HDx-MS: deuterium uptake of FGFR2 D2-D3 peptides with mAb against control without mAb [A), D00032 FIG. 19 (B]
T2 construct: also called E. coli derived FGFR2 D2-D3 protein
T2 chain: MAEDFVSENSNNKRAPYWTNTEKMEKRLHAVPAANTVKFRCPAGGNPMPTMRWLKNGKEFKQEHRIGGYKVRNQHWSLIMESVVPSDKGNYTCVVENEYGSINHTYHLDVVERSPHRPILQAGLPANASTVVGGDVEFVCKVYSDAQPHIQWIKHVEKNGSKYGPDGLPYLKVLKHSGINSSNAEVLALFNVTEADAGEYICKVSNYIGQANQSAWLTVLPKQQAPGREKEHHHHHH

Human FGFR4 ECD [3] = biological target: T1, Human FGFR4 ECD; test: SET or Biacore, IgG

B1: mAb 12422 (antibody, human IgG1, kappa, V domains shown)
VH: QVQLVQSGAEVKKPGSSVKVSCKASGGTFSSYAISWVRQAPGQGLEWMGYISPYMGETHYAQKFQGRVTITADESTSTAYMELSSLRSEDTAVYYCARESYEYFDIWGQGTLVTVSS
VL: DIQMTQSPSSLSASVGDRVTITCRASQSISNDLAWYQQKPGKAPKLLIYATSILQSGVPSRFSGSGSGTDFTLTISSLQPEDFATYYCLQYYDYSYTFGQGTKVEIKR
With B1 the Kd (Human FGFR4 ECD [1]) was 0.95 nM.

B2: mAb 20562 (antibody, human IgG1, kappa, V domains shown)
VH: EVQLLESGGGLVQPGGSLRLSCAASGFTFSDYAMSWVRQAPGKGLEWVSVIEGDASYTHYADSVRGRFTISRDNSKNTLYLQMNSLRAEDTAVYYCARERTYSSAFDYWGQGTLVTVSS
VL: DIQMTQSPSSLSASVGDRVTITCRASQDISSDLNWYQQKPGKAPKLLIYDASNLQSGVPSRFSGSGSGTDFTLTISSLQPEDFATYYCQQHYSPSHTFGQGTKVEIKR
B2 was tested, and the Kd (Human FGFR4 ECD [2]) was 3.3 nM.

B3: mAb 12439 (antibody, human IgG1, kappa, V domains shown)
VH: QVQLVQSGAEVKKPGASVKVSCKASGYTFTSYDISWVRQAPGQGLEWMGWINPYNGGTNYAQKFQGRVTMTRDTSISTAYMELSRLRSEDTAVYYCAREGSGMIVYPGWSYAFDYWGQGTLVTVSS
VL: DIQMTQSPSSLSASVGDRVTITCRASQDISNDLGWYQQKPGKAPKLLIYAASSLQSGVPSRFSGSGSGTDFTLTISSLQPEDFATYYCQQHYHTPNTFGQGTKVEIKR
Binder B3 has a Kd (Human FGFR4 ECD [1]) of 4.3 nM.

B4: mAb 20811 (antibody, human IgG1, kappa, V domains shown)
VH: QVQLLESGGGLVQPGGSLRLSCAASGFTFSDYAMSWVRQAPGKGLEWVSTIEGDSNYIEYADSVKGRFTISRDNSKNTLYLQMNSLRAEDTAVYYCARERTYSSAFDYWGQGTLVTVSS
VL: DIQMTQSPSSLSASVGDRVTITCRASQDISSDLNWYQQKPGKAPKLLIYDASNLQSGVPSRFSGSGSGTDFTLTISSLQPEDFATYYCHQWYSTLYTFGQGTKVEIKR
For B4, the binding result (FGFR2 D2-D3 Construct) was “binds” and the Kd (Human FGFR4 ECD [3]) was 0.075 nM.
